The supplement of paper PMC10724198
± gives the standard deviation of the averaged measurements.

tested on: Saccharomyces cerevisiae; test: protein stability index of tFT-peptide fusion (C-terminal peptide) (PSI (0-1 scale)); higher = more stable (slower turnover); settings: genetic background: das1 deletion; temperature: 30 C
Protocol: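 MPS profiling in S. cerevisiae of the yeast C-terminome library: the last 12 aa of each annotated ORF are fused to the C-terminus of a sfGFP-mCherry timer, after a GGGS linker. Cells are FACS-sorted into 8 mCherry/sfGFP bins and deep-sequenced. PSI runs from 0 (unstable) to 1 (stable); wild type and das1Δ backgrounds, two technical replicates each.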

Sequence	protein stability index
LARLKTCVLLIN [YML122C C-terminal 12 aa]	0.544 ± 0.017
LCGAPNCKGFLN [SET1 C-terminal 12 aa]	0.677 ± 0.026
LEKSTNPIKKNN [VOA1 C-terminal 12 aa]	0.703 ± 0.023
LEKVLNQIGLKN [YNL011C C-terminal 12 aa]	0.6874 ± 0.0064
LEPQESKPTIDH [AIM34 C-terminal 12 aa]	0.697 ± 0.018
LFCYCSCDSYES [YBL100C C-terminal 12 aa]	0.646 ± 0.017
LFDARFERKNPH [SRB8 C-terminal 12 aa]	0.737 ± 0.025
LGFIQNSTIVCQ [YMR306C-A C-terminal 12 aa]	0.467 ± 0.028
LGKKKPPSRLFR [CDC25 C-terminal 12 aa]	0.707 ± 0.019
LGLSLRRGTEIW [MRP8 C-terminal 12 aa]	0.72702 ± 0.00035
LGSNCVFLAIFR [YPL222C-A C-terminal 12 aa]	0.674 ± 0.032
LHTEREKKKKKF [YKR040C C-terminal 12 aa]	0.725 ± 0.043
LHVVSSAYFEIQ [YEL075C C-terminal 12 aa]	0.674 ± 0.041
LICQTESNPKIV [VPS8 C-terminal 12 aa]	0.708 ± 0.0091
LIVSFFYKRNAL [IQG1 C-terminal 12 aa]	0.667 ± 0.018
LIVSYCASVAFG [ATG12 C-terminal 12 aa]	0.366 ± 0.013
LKDQIVETRTPI [ERG27 C-terminal 12 aa]	0.707 ± 0.042
LKLKRDLLRLKR [CIP1 C-terminal 12 aa]	0.682 ± 0.019
LKQTVESLIKEL [VPS51 C-terminal 12 aa]	0.66 ± 0.0088
LKSATESFVATF [ATP1 C-terminal 12 aa]	0.701 ± 0.0097
LKSVKHSIRVYT [YPR012W C-terminal 12 aa]	0.627 ± 0.015

Sequence	protein stability index
LLFGDEVVACKD [YDL172C C-terminal 12 aa]	0.722 ± 0.017
LLGAITALFGLI [PLB2 C-terminal 12 aa]	0.686 ± 0.034
LLKKLKVVFGIE [FUN12 C-terminal 12 aa]	0.703 ± 0.014
LLLTILLFYPPY [YBL109W C-terminal 12 aa]	0.296 ± 0.011
LLTAMSAQISFD [AAD16 C-terminal 12 aa]	0.735 ± 0.00072
LLYHMDLLLKVK [VID28 C-terminal 12 aa]	0.299 ± 0.026
LMQLLLGSLGLS [YKL145W-A C-terminal 12 aa]	0.706 ± 0.0093
LNDMVLELKENY [NNF1 C-terminal 12 aa]	0.698 ± 0.015
LNEPKDSAENKI [SRC1 C-terminal 12 aa]	0.6958 ± 0.0062
LNWVFSFYSCSE [YIL163C C-terminal 12 aa]	0.6796 ± 0.0049
LQYKKVGKWRED [URB2 C-terminal 12 aa]	0.724 ± 0.017
LRKAAANNCIQF [SUA5 C-terminal 12 aa]	0.7215 ± 0.0026
LRKRLSCYMLIL [YDR114C C-terminal 12 aa]	0.576 ± 0.013
LRNQSPFTSSNE [YKL107W C-terminal 12 aa]	0.695 ± 0.02
LRRGEPDNKVNR [SPG4 C-terminal 12 aa]	0.71 ± 0.019
LRVYENFQKFIK [YMR262W C-terminal 12 aa]	0.72 ± 0.054
LSDASYDTYELV [SPG5 C-terminal 12 aa]	0.703 ± 0.011
LSEKIYDAFGKL [MUS81 C-terminal 12 aa]	0.723 ± 0.015
LSIFGFDMFNRK [YMR1 C-terminal 12 aa]	0.706 ± 0.046
LSNMLNQFILNL [YLR202C C-terminal 12 aa]	0.754 ± 0.058
LSQIVDIWNKDI [MNT2 C-terminal 12 aa]	0.741 ± 0.03

Sequence	protein stability index
LSTFFLFHNPCN [YGL239C C-terminal 12 aa]	0.762 ± 0.022
LSTLGVGAAIIS [AVT1 C-terminal 12 aa]	0.695 ± 0.024
LSVHPLKPCDPN [INP52 C-terminal 12 aa]	0.684 ± 0.0054
LTARKVNALRHR [KNH1 C-terminal 12 aa]	0.694 ± 0.028
LTILRISELSMN [MRPL49 C-terminal 12 aa]	0.7053 ± 0.0034
LTLNWGVEIVKK [RDI1 C-terminal 12 aa]	0.73 ± 0.03
LTMLPPMAPLLS [YMR158W-B C-terminal 12 aa]	0.684 ± 0.021
LTPADLQFLFNN [RAD16 C-terminal 12 aa]	0.72 ± 0.013
LTQVEKPRGIFD [DDC1 C-terminal 12 aa]	0.71 ± 0.023
LVEGQTFDADVE [EGD1 C-terminal 12 aa]	0.69111 ± 4.7e-05
LVLKQRQEQEKQ [GDI1 C-terminal 12 aa]	0.688 ± 0.025
LVRFIEAEKFVG [SNX3 C-terminal 12 aa]	0.7119 ± 0.003
LYDNIRSGNFGI [MSB1 C-terminal 12 aa]	0.771 ± 0.008
MDNKQQLSSGRT [SNA3 C-terminal 12 aa]	0.709 ± 0.016
MFKCARQSEFDK [MTG2 C-terminal 12 aa]	0.6881 ± 0.0066
MKKLQNKKSSAV [CAB5 C-terminal 12 aa]	0.695 ± 0.05
MQRVSTQHEKSS [PMA2 C-terminal 12 aa]	0.693 ± 0.024
MQTHYILMKAQW [PPM1 C-terminal 12 aa]	0.579 ± 0.008
MSSFLSKKENNN [SNT1 C-terminal 12 aa]	0.722 ± 0.024
MTGTCFMTDLAP [YKL097C C-terminal 12 aa]	0.721 ± 0.024
MTLDSWQPLTPK [INP53 C-terminal 12 aa]	0.723 ± 0.016

Sequence	protein stability index
NEEYIEELDLVL [HSH155 C-terminal 12 aa]	0.696 ± 0.0089
NFQTHYRDELLQ [REH1 C-terminal 12 aa]	0.729 ± 0.054
NFVSQYRNDEIY [YOR381W-A C-terminal 12 aa]	0.688 ± 0.032
NGHVSKKAKVTK [LYS21 C-terminal 12 aa]	0.6885 ± 0.0043
NIAPFPFFGKRR [PMD1 C-terminal 12 aa]	0.6837 ± 0.00075
NIEKGVNFVASK [MDH1 C-terminal 12 aa]	0.6837 ± 0.0049
NIGDFSPDLMDS [MSS11 C-terminal 12 aa]	0.684 ± 0.011
NIKALNQSKSHM [SPO77 C-terminal 12 aa]	0.684 ± 0.022
NKKPKNKKKGRK [SRP72 C-terminal 12 aa]	0.6842 ± 0.005
NKRLKKILNNTK [RME1 C-terminal 12 aa]	0.702 ± 0.014
NKVEAFKSLYTF [NUP60 C-terminal 12 aa]	0.705 ± 0.028
NLKNGVTLESPE [UBP12 C-terminal 12 aa]	0.716 ± 0.01
NLMVADDKVWRV [MCM3 C-terminal 12 aa]	0.696 ± 0.017
NLVASKQLSTYK [RAV2 C-terminal 12 aa]	0.694 ± 0.0082
NMLFICLNVPHY [YGL114W C-terminal 12 aa]	0.6561 ± 0.0045
NNASEDDRGIRV [STB2 C-terminal 12 aa]	0.6973 ± 0.0012
NNIKWYLHWKFI [VPR1 C-terminal 12 aa]	0.684 ± 0.033
NNNMESFPEMSP [GLE1 C-terminal 12 aa]	0.726 ± 0.013
NNNNNNNDDDDK [CTK1 C-terminal 12 aa]	0.694 ± 0.021
